Measurements from patent US20210238249.

Tests used:
[1] = molecular target: fusion protein TOM70-(GGGGS)3-UB-p53 (UniProt P07213)
[2] = molecular target: recombinant fusion protein TOM70-UB-p53 (UniProt P07213)

**Q.** With UBP1 enzyme as the substance, how does the “cleavage of the ubiquitin sequence by UBP1, 37 C for 1 hour, SDS-PAGE” value [1] read?
**A.** the 3′ end of ubiquitin was cleaved by UBP1 enzyme, and only p53 protein was dissociation as expected

**Q.** What about the “cleavage of the ubiquitin sequence by UBP1, 37 C for 1 hour, SDS-PAGE” value [2] of the same substance?
**A.** the dissociation of the ubiquitin protein from the fusion protein did not occur at all by UBP1
